Reference: US20260242735A1

Legend:
[1] = target: human CD33 T240A (human) (UniProt P20138); experiment: alanine scan, flow cytometry
[2] = target: human CD33 N230A (human) (UniProt P20138); experiment: alanine scan, flow cytometry
[3] = target: human CD33 F216A (human) (UniProt P20138); experiment: alanine scan, flow cytometry
[4] = target: human CD33 T223A (human) (UniProt P20138); experiment: alanine scan, flow cytometry
[5] = target: human CD33 Q236A (human) (UniProt P20138); experiment: alanine scan, flow cytometry
[6] = target: human CD33 P235A (human) (UniProt P20138); experiment: alanine scan, flow cytometry
[7] = target: human CD33 G266A (human) (UniProt P20138); experiment: alanine scan, flow cytometry
[8] = target: human CD33 G207A (human) (UniProt P20138); experiment: alanine scan, flow cytometry
[9] = target: human CD33 V231A (human) (UniProt P20138); experiment: alanine scan, flow cytometry
[10] = target: human CD33 H259A (human) (UniProt P20138); experiment: alanine scan, flow cytometry
[11] = target: human CD33 I198A (human) (UniProt P20138); experiment: alanine scan, flow cytometry
[12] = target: human CD33 R254A (human) (UniProt P20138); experiment: alanine scan, flow cytometry
[13] = target: human CD33 G263A (human) (UniProt P20138); experiment: alanine scan, flow cytometry
[14] = target: human CD33 N237A (human) (UniProt P20138); experiment: alanine scan, flow cytometry
[15] = target: human CD33 Q228A (human) (UniProt P20138); experiment: alanine scan, flow cytometry
[16] = target: human CD33 R225A (human) (UniProt P20138); experiment: alanine scan, flow cytometry
[17] = target: human CD33 T232A (human) (UniProt P20138); experiment: alanine scan, flow cytometry
[18] = target: human CD33 L270A (human) (UniProt P20138); experiment: alanine scan, flow cytometry
[19] = target: human CD33 A261S (human) (UniProt P20138); experiment: alanine scan, flow cytometry
[20] = target: human CD33 G264A (human) (UniProt P20138); experiment: alanine scan, flow cytometry
[21] = target: human CD33 H206A (human) (UniProt P20138); experiment: alanine scan, flow cytometry
[22] = target: human CD33 Y233A (human) (UniProt P20138); experiment: alanine scan, flow cytometry
[23] = target: human CD33 F43L (human) (UniProt P20138); experiment: flow cytometry on transfected cells, IgG
[24] = target: human CD33 I47V (human) (UniProt P20138); experiment: flow cytometry on transfected cells, IgG
[25] = target: human CD33 F44V (human) (UniProt P20138); experiment: flow cytometry on transfected cells, IgG
[26] = target: human CD33 T42P (human) (UniProt P20138); experiment: flow cytometry on transfected cells, IgG
[27] = target: human CD33 Y50P (human) (UniProt P20138); experiment: flow cytometry on transfected cells, IgG
[28] = target: human CD33 P46D (human) (UniProt P20138); experiment: flow cytometry on transfected cells, IgG
[29] = target: human CD33 P48W (human) (UniProt P20138); experiment: flow cytometry on transfected cells, IgG
[30] = target: human CD33 I47L (human) (UniProt P20138); experiment: flow cytometry on transfected cells, IgG
[31] = target: human CD33 T42K (human) (UniProt P20138); experiment: flow cytometry on transfected cells, IgG
[32] = target: human CD33 P48T (human) (UniProt P20138); experiment: flow cytometry on transfected cells, IgG
[33] = target: human CD33 Y50S (human) (UniProt P20138); experiment: flow cytometry on transfected cells, IgG
[34] = target: human CD33 I47Q (human) (UniProt P20138); experiment: flow cytometry on transfected cells, IgG
[35] = target: human CD33 Y49G (human) (UniProt P20138); experiment: flow cytometry on transfected cells, IgG
[36] = target: human CD33 Y50R (human) (UniProt P20138); experiment: flow cytometry on transfected cells, IgG
[37] = target: human CD33 F44Q (human) (UniProt P20138); experiment: flow cytometry on transfected cells, IgG
[38] = target: human CD33 P46F (human) (UniProt P20138); experiment: flow cytometry on transfected cells, IgG
[39] = target: human CD33 Y50Q (human) (UniProt P20138); experiment: flow cytometry on transfected cells, IgG
[40] = target: human CD33 Y49T (human) (UniProt P20138); experiment: flow cytometry on transfected cells, IgG
[41] = target: human CD33 Y49P (human) (UniProt P20138); experiment: flow cytometry on transfected cells, IgG
[42] = target: human CD33 Y49I (human) (UniProt P20138); experiment: flow cytometry on transfected cells, IgG
[43] = target: human CD33 F44T (human) (UniProt P20138); experiment: flow cytometry on transfected cells, IgG
[44] = target: human CD33 I47E (human) (UniProt P20138); experiment: flow cytometry on transfected cells, IgG
[45] = target: human CD33 P46S (human) (UniProt P20138); experiment: flow cytometry on transfected cells, IgG
[46] = target: human CD33 P46Y (human) (UniProt P20138); experiment: flow cytometry on transfected cells, IgG
[47] = target: human CD33 H45Y (human) (UniProt P20138); experiment: flow cytometry on transfected cells, IgG
[48] = target: human CD33 Y49Q (human) (UniProt P20138); experiment: flow cytometry on transfected cells, IgG
[49] = target: human CD33 I47R (human) (UniProt P20138); experiment: flow cytometry on transfected cells, IgG
[50] = target: human CD33 Y49V (human) (UniProt P20138); experiment: flow cytometry on transfected cells, IgG
human CD33 Y49V (human), sequence (P20138 18-364 Y49V limits assumed): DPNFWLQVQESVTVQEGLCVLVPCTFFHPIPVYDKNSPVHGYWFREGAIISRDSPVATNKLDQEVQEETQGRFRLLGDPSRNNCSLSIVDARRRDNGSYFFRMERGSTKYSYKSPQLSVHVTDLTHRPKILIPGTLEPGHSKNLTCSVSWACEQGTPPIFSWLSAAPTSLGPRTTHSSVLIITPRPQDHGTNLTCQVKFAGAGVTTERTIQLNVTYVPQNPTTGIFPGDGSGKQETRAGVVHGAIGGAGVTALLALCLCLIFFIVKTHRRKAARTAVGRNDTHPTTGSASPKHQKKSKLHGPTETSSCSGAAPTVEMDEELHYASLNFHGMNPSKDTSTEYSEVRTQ

human CD33 R254A (human), sequence (P20138 18-364 R254A limits assumed): as the sequence (P20138 18-364 Y49V limits assumed) above, with V32Y, R237A counted along it
human CD33 F43L (human), sequence (P20138 18-364 F43L limits assumed): as the sequence (P20138 18-364 Y49V limits assumed) above, with F26L, V32Y counted along it
human CD33 I198A (human), sequence (P20138 18-364 I198A limits assumed): as the sequence (P20138 18-364 Y49V limits assumed) above, with V32Y, I181A counted along it
human CD33 Y50P (human), sequence (P20138 18-364 Y50P limits assumed): as the sequence (P20138 18-364 Y49V limits assumed) above, with V32Y, Y33P counted along it
human CD33 I47V (human), sequence (P20138 18-364 I47V limits assumed): as the sequence (P20138 18-364 Y49V limits assumed) above, with I30V, V32Y counted along it
human CD33 H45Y (human), sequence (P20138 18-364 H45Y limits assumed): as the sequence (P20138 18-364 Y49V limits assumed) above, with H28Y, V32Y counted along it
human CD33 H206A (human), sequence (P20138 18-364 H206A limits assumed): as the sequence (P20138 18-364 Y49V limits assumed) above, with V32Y, H189A counted along it
human CD33 G266A (human), sequence (P20138 18-364 G266A limits assumed): as the sequence (P20138 18-364 Y49V limits assumed) above, with V32Y, G249A counted along it
human CD33 T42P (human), sequence (P20138 18-364 T42P limits assumed): as the sequence (P20138 18-364 Y49V limits assumed) above, with T25P, V32Y counted along it
human CD33 G264A (human), sequence (P20138 18-364 G264A limits assumed): as the sequence (P20138 18-364 Y49V limits assumed) above, with V32Y, G247A counted along it
human CD33 H259A (human), sequence (P20138 18-364 H259A limits assumed): as the sequence (P20138 18-364 Y49V limits assumed) above, with V32Y, H242A counted along it
human CD33 Y50R (human), sequence (P20138 18-364 Y50R limits assumed): as the sequence (P20138 18-364 Y49V limits assumed) above, with V32Y, Y33R counted along it
human CD33 T232A (human), sequence (P20138 18-364 T232A limits assumed): as the sequence (P20138 18-364 Y49V limits assumed) above, with V32Y, T215A counted along it

Substance: Refmab #7 (WM53) (antibody)
- Mean % WT Binding [1]: 121 % WT binding
- Mean % WT Binding [2]: 100 % WT binding
- Mean % WT Binding [3]: 112 % WT binding
- Mean % WT Binding [4]: 110 % WT binding
- Mean % WT Binding [5]: 94.3 % WT binding
- Mean % WT Binding [6]: 112 % WT binding
- Mean % WT Binding [7]: 110 % WT binding
- Mean % WT Binding [8]: 104 % WT binding
- Mean % WT Binding [9]: 112 % WT binding
- Mean % WT Binding [10]: 119 % WT binding
- Mean % WT Binding [11]: 111 % WT binding
- Mean % WT Binding [12]: 126 % WT binding
- Mean % WT Binding [13]: 104 % WT binding
- Mean % WT Binding [14]: 116 % WT binding
- Mean % WT Binding [15]: 115 % WT binding
- Mean % WT Binding [16]: 99.8 % WT binding
- Mean % WT Binding [17]: 95.3 % WT binding
- Mean % WT Binding [18]: 99.8 % WT binding
- Mean % WT Binding [19]: 102 % WT binding
- Mean % WT Binding [20]: 82.8 % WT binding
- Mean % WT Binding [21]: 108 % WT binding
- Mean % WT Binding [22]: 109 % WT binding
- Mean % WT Binding [23]: 94 % WT binding
- Mean % WT Binding [24]: 97.4 % WT binding
- Mean % WT Binding [25]: 36.1 % WT binding
- Mean % WT Binding [26]: 15.9 % WT binding
- Mean % WT Binding [27]: 0.4 % WT binding
- Mean % WT Binding [28]: 15.9 % WT binding
- Mean % WT Binding [29]: 0.7 % WT binding
- Mean % WT Binding [30]: 37.4 % WT binding
- Mean % WT Binding [31]: 77 % WT binding
- Mean % WT Binding [32]: 1.6 % WT binding
- Mean % WT Binding [33]: 7.7 % WT binding
- Mean % WT Binding [34]: 8.2 % WT binding
- Mean % WT Binding [35]: 20.5 % WT binding
- Mean % WT Binding [36]: 1.7 % WT binding
- Mean % WT Binding [37]: 74.8 % WT binding
- Mean % WT Binding [38]: 23 % WT binding
- Mean % WT Binding [39]: 7.2 % WT binding
- Mean % WT Binding [40]: 0.1 % WT binding
- Mean % WT Binding [41]: 11.7 % WT binding
- Mean % WT Binding [42]: 0.2 % WT binding
- Mean % WT Binding [43]: 31.7 % WT binding
- Mean % WT Binding [44]: 3.9 % WT binding
- Mean % WT Binding [45]: 96.4 % WT binding
- Mean % WT Binding [46]: 8.6 % WT binding
- Mean % WT Binding [47]: 75.7 % WT binding
- Mean % WT Binding [48]: 0.7 % WT binding
- Mean % WT Binding [49]: 2 % WT binding
- Mean % WT Binding [50]: 0.9 % WT binding
